From patent publication US20240425587A1 (Alector, published 2024) come the findings set out here.

Assay [1] deals with T1, human PILRA, c-term His-Avi tag (human, UniProt Q9UKJ1 20-197, limits assumed).
T1 construct: not shown: C-terminal His-Avi tag
Nature of the assay: SPR (Biacore), antibody captured, PILRA as analyte. In a few lines:
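Antibodies were captured at 10 μg/ml on an anti-huFc or anti-msFc CM5 surface, and human PILRA was flowed at 33, 100 and 300 nM in HBSTE/0.5% BSA, pH 7.4. The surface was regenerated with 10 mM glycine-HCl, pH 2.1, after each analyte. Curves were double-referenced with buffer injections.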

For assay [2], the target named is T2, murine PILRB, ectopically expressed on 293 cells (murine, UniProt Q2YFS2 29-224).
T2 construct: whole, on cells; also called mB
T2 sequence (Q2YFS2 29-224): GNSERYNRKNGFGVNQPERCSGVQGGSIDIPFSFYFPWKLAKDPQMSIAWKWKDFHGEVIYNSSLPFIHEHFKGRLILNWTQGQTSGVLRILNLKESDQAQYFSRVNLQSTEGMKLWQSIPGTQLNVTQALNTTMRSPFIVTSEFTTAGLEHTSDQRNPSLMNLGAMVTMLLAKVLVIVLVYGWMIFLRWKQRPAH
Nature of the assay: flow cytometry, MFI relative to 293 parental cells. On the procedure:
(§1) Briefly, conditioned media containing antibodies were incubated with 293 cells for 30 min at 4° C., washed twice, and then detected with anti-mouse IgG Alexa 647.

The target of assay [3] is T3, murine PILRA, ectopically expressed on 293 cells (murine, UniProt Q2YFS3 32-302).
T3 construct: also called mA
T3 sequence (Q2YFS3 32-302): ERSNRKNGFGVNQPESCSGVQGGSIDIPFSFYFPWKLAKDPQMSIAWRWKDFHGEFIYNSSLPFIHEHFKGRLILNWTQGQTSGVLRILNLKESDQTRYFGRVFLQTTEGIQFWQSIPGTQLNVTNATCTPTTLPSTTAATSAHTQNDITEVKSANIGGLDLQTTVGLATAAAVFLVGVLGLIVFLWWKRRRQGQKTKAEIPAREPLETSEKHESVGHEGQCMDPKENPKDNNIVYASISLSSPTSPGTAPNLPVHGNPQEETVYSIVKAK
Nature of the assay: flow cytometry, MFI relative to 293 parental cells. The protocol:
as §1

Assay [4] concerns the target T4, human PILRB, ectopically expressed on 293 cells (human, UniProt Q9UKJ0 20-227).
T4 construct: also called hB
Nature of the assay: flow cytometry, MFI relative to 293 parental cells. The protocol: as §1

Assay [5] concerns the target T5, cynomolgus PILRA, ectopically expressed on 293 cells (cynomolgus monkey). Nature of the assay: flow cytometry, MFI relative to 293 parental cells. On the procedure:
as §1

The target of assay [6] is T6, human PILRA, G78 variant, ectopically expressed on 293 cells (human, UniProt Q9UKJ1 20-303).
T6 construct: the cells are labelled G78; also called hA G78 OE; hA
T6 sequence (Q9UKJ1 other isoform, or with tags, fused parts or gaps mutant): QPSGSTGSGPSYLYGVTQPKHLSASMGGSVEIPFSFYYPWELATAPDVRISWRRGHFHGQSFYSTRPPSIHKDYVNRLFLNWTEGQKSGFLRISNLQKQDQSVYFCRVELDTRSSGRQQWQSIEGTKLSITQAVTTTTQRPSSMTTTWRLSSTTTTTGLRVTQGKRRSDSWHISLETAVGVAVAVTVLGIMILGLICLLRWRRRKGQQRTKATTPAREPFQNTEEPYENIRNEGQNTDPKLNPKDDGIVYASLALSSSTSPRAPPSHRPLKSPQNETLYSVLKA
Nature of the assay: flow cytometry, MFI relative to 293 parental cells. On the procedure: as §1

Assay [7] has as its target T6, human PILRA, G78 variant, ectopically …. Nature of the assay: flow cytometry; NPDC1-mIgGa binding to 293 cells expressing human PILRA G78 with antibody, relative to NPDC1 Fc alone. The protocol: Conditioned media samples containing antibodies (10 ug/ml) were assessed for modulating the binding of Neural Proliferation Differentiation and Control Protein 1 (NPDC1) Fc to 293 cells ectopically expressing human PILRA. Briefly, conditioned media samples containing antibodies were incubated with 293 cells expressing human PILRA for 30 minutes at 4° C., and then 5 μg/ml NPDC1 Fc was added to this mixture. Where the antibodies were generated from phage panning, a NPDC1-hIgG1 ligand was used. Where the antibodies were generated from hybridomas, a NPDC1-mIgGa ligand was used. After 30 minutes incubation at 4° C., cells were washed and cell-bound NPDC1 Fc was detected with anti-human or mouse IgG Alexa 647. Cells were analyzed by flow cytometry on FACS Canto II, and for all cell lines, the percentage of NPDC1 Fc binding in the presence of conditioned media relative to NPDC1 Fc binding alone was calculated. Several antibodies decreased binding of NPDC1 to human PILRA, and a few antibodies enhanced ligand binding to human PILRA. Antibodies that show enhancement in this assay may block cis inhibition to promote trans interactions or may allosterically activate to enhance trans interactions without blocking cis.

In assay [8] the target is T7, PILRA Fc (soluble human PILRA) (human, UniProt Q9UKJ1 20-197, limits assumed).
T7 construct: also called soluble PILRA; not shown: Fc part, detected with anti-human IgG
T7 sequence (Q9UKJ1 20-197 limits assumed): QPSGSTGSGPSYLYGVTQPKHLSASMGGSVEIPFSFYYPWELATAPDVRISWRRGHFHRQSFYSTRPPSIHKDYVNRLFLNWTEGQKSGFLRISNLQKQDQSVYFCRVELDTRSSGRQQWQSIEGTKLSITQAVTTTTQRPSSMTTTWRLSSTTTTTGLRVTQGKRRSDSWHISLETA
Nature of the assay: flow cytometry; PILRA Fc binding to human CD3+ T cells with antibody, relative to PILRA Fc alone. On the procedure: (§2) The ability of conditioned media samples containing antibodies to inhibit the binding of PILRA Fc to human CD3+ T cells was assessed. Briefly, conditioned media samples containing antibodies were incubated with 1.25 ug/ml PILRA Fc for 30 min at 4° C. and then added to human T cells. After 30 minutes incubation at 4° C., cells were washed, and bound PILRA Fc was detected with anti-human IgG Alexa 647. Cells were analyzed by flow cytometry on FACS Canto II, and for all cell lines, the amount of PILRA Fc binding (MIFI) and the percentage of PILRA Fc binding in the presence of conditioned media relative to PILRA Fc binding alone was calculated. Several antibodies inhibited binding of PILRA Fc to human T cells, and a few antibodies enhanced PILRA-Fc binding to T cells. Antibodies that show enhancement in this assay may block cis inhibition to promote trans interactions or may allosterically activate to enhance trans interactions without blocking cis.

Assay [9] deals with human PILRA on the surface of primary human macrophages or monocytes (human, UniProt Q9UKJ1 20-303). Nature of the assay: cell-based or functional assay.
Chain of human PILRA on the surface of primary human macrophages or monocytes (Q9UKJ1 20-303): as the sequence (Q9UKJ1 other isoform, or with tags, fused parts or gaps mutant) above, with G59R counted along it
In assay [10] the target is T5, cynomolgus PILRA, ectopically expressed …. Nature of the assay: screening summary, TCP groups.
Assay [11] addresses T7, PILRA Fc (soluble human PILRA). Nature of the assay: flow cytometry blocking assay, graph 'V1 Blocking_CD3+T Donor 906': antibody mixed with PILRA-Fc, then human CD3+ T cells; bound PILRA-Fc detected with AF647 2nd Ab; blocked partner: PILRA ligand on the T cells. The protocol: as §2

T5 sequence (chain, as listed by the source): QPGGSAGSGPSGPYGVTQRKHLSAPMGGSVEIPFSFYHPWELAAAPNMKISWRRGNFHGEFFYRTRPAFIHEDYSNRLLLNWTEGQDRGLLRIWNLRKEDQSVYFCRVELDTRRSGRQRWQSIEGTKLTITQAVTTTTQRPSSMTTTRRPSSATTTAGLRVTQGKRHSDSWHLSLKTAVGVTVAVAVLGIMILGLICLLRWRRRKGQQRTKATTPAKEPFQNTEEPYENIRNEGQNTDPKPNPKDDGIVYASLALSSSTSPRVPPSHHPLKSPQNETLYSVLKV
T1 sequence (Q9UKJ1 20-197 limits assumed): as the sequence (Q9UKJ1 20-197 limits assumed) above
T4 sequence (Q9UKJ0 20-227): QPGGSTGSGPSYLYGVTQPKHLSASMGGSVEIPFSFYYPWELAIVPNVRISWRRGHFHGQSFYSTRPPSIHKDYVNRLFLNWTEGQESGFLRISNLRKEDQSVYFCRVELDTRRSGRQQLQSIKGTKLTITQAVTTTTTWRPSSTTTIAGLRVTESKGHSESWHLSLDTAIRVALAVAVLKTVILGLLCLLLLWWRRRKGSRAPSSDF

B1: C2 (antibody, V domains shown)
VH: QVQLQQSGAELVRPGASVTLSCKAAGYTFADYEMHWVRQTPVLGLEWIGAIDSEPGRTVYNQKFKSKAILTADKSSSTAYMELRSLTSDDSAVYYCTRRGAFYTNYDFFDYWGQGTTLTVSS
VL: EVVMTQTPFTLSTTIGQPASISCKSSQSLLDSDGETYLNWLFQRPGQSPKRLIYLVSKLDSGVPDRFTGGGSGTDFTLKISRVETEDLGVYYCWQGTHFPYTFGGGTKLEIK
notes: first hybridoma campaign
In the case of B1, in assay [1], the equilibrium dissociation constant (Kd) came to 2.2 nM. In addition, the koff in [1] is 0.0038 s⁻¹. The kon in assay [1] was found to be 1.7e+06 M⁻¹ s⁻¹. This molecule also had a t½ in assay [1] of 3.1 min. Also, the MFIr in assay [2] amounted to 0.8; in assay [3] it was 0.9; in assay [4] it was 1.1; in assay [5] it was 2.7; in assay [6], 102. Also, the results for the “% Binding” value in assay [7] and in [8] were 177% and 66.2%, respectively.

B2: B3 (hIgG4 isotype) (antibody, V domains shown)
VH: EVKLVESGGGLVKPGGSLKLSCTASGFTFSNYAMSWVRQTPEKRLEWVASISGGGSTYYPDSVKGRFTIAIDYARNILYLQMSSLRSEDTAIYFCTRGVSYGDYAMDYWGQGTSVTVSS
VL: ETTVTQSPASLSMAIGEKVTIRCVTSTDIDDDMNWYQQKPGGPPKLLISEGNTLRPGVPSRFSSSGYGSDFVFTIEDMLSEDVADYYCLQSDNLPLTFGAGTKVELK
For B2, the “hPILRA downregulation EC50” value in [9] was found to be 0.006 µg/mL.

B3: B3 (antibody, V domains shown)
VH: EVKLVESGGGLVKPGGSLKLSCTASGFTFSNYAMSWVRQTPEKRLEWVASISGGGSTYYPDSVKGRFTIAIDYARNILYLQMSSLRSEDTAIYFCTRGVSYGDYAMDYWGQGTSVTVSS
VL: ETTVTQSPASLSMAIGEKVTIRCVTSTDIDDDMNWYQQKPGGPPKLLISEGNTLRPGVPSRFSSSGYGSDFVFTIEDMLSEDVADYYCLQSDNLPLTFGAGTKVELK
notes: B-cell cloning campaign (mice)
With B3, the binding result is “no binding (tested: 33, 100, and 300 nM)” in assay [1]; “binds” in assay [10].

B4: B4 (antibody, V domains shown)
VH: EVKLVESGGGLVKPGGSLKLSCTASGFTFSNYAMSWVRQTPEKRLEWVASISGGGSTYYPDSVKGRFTIAIDYARNILYLQMSSLRSEDTAIYYCTRGVSYGDYAMDYWGQGTSVTVSS
VL: ETTVTQSPASLSMAIGEKVTIRCVTSTDIDDDMNWYQQKPGGPPKLLISEGNTLRPGVPSRFSSSGYGSDFVFTIEDMLSEDVADYYCLQSDNLPLTFGAGTKVELK
notes: as for B3
Regarding B4, in assay [1], the Kd stood at 88.3 nM, the koff worked out at 0.00054 s⁻¹, the kon came to 6100 M⁻¹ s⁻¹ and the t½ was 21.4 min. Besides, the binding result in assay [10] was “binds”.

B5: hPA-002 (hIgG4 isotype) (antibody, V domains shown)
VH: QVTLQESGPGILQPSQTLSLTCSFSGFSLSTFGMGVGWIRQPSGKGLEWLAHIWWDDDKYYNPALKSRLTISKDTSKNQVFLKIASVDTADIATYYCARVEDYGNPFDYWGQGTTL
VL: DIQMNQSPSSLSASLGDTITITCHASQNIHVWLNWYQQKPGNIPKLLIYKASNLHTGVPSRFSGSGSGTGFTVTISSLQPEDIATYYCQQGQSYPLTFGAGTKLELK
With B5, the “hPILRA downregulation EC50” value in assay [9] stood at 0.48 µg/mL.

B6: hPA-002 (antibody, V domains shown)
VH: QVTLQESGPGILQPSQTLSLTCSFSGFSLSTFGMGVGWIRQPSGKGLEWLAHIWWDDDKYYNPALKSRLTISKDTSKNQVFLKIASVDTADIATYYCARVEDYGNPFDYWGQGTTL
VL: DIQMNQSPSSLSASLGDTITITCHASQNIHVWLNWYQQKPGNIPKLLIYKASNLHTGVPSRFSGSGSGTGFTVTISSLQPEDIATYYCQQGQSYPLTFGAGTKLELK
Turning to B6, in assay [1], the affinity, expressed as Kd, was 23.4 nM; the koff is 0.0052 s⁻¹; the kon worked out at 220000 M⁻¹ s⁻¹; the t½ is 2.2 min. The “IC50 (read off the curve)” value in assay [11] is approximately 1 µg/mL.

B7: hPA-005 (antibody, V domains shown)
VH: QVILKESGPGILQSSQTLSLTCSFSGFSLSTFGMGVGWIRQPSGKGLESLAHIWWDDDKFYNPALKSRLTISKDTSKSQVFLKIANVDTADIATYYCTRIEDYGSYFAYWGQGTTLTVSS
VL: DVQMNQSPSSLSASLGDPITITCHASQNIHVWLNWYQQRPGNIPRLLIYKASNLHTGVPSRFSGSGSGTGFTLTISSLQPEDIATYYCQQGQSYPYTFGGGTKLEIK
As to B7, in assay [1], the Kd is 7 nM, the koff was 0.0015 s⁻¹, the on-rate constant (kon) was found to be 210000 M⁻¹ s⁻¹ and the t½ is 7.9 min. Besides, the “IC50 (read off the curve)” value in assay [11] is approximately 3 µg/mL.

B8: hPA-004 (antibody, V domains shown)
VH: QVTLKESGPGMLQPSQTLSLACSFSGFSLNSFGVAVGWIRQPSGKGLEWLAHIWWDDDKSYNPALKSRLTISKDTSKNQVFLKLANVDTADTATYYCTRIADYGNHFDYWGQGTALTVSS
VL: DIQMNQSPSSLSASLGDTITITCHASQNSHVWLSWYQQKPGNIPKLLIYKASNLHTGVPSRFSGSGSGTGFTLTISGLQPEDIATYYCQQGQTYPFTFGSGTKLEIK
In [1], B8 displayed a dissociation constant (Kd) of 9 nM, a koff of 0.0011 s⁻¹, a kon of 130000 M⁻¹ s⁻¹ and a t½ of 10.1 min. Moreover, the “IC50 (read off the curve)” value in assay [11] is approximately 3 µg/mL.

B9: C1 (antibody, V domains shown)
VH: QIQLVQSGPELKKPGETVKISCKASGYTFTTYGMSWVKQAPGKGLKWMGWINTYSGVPTYADDFQGRFAFSLETSASTAYLQINNLKNEDTAPYFCVRDGYAAPYWGQGTLVTVSA
VL: NIMMTQSPSSLAVSAGEKVTMRCKSSQSVLYSSNQKNYLAWYQQKPGQSPKLLIYWASTRESGVPDRFTGSGSGTDFTLTISSVQAEDLAVYYCHQYLSSWTFGGGTKLEIK
notes: first hybridoma campaign
In [1], B9 returned a Kd of 45 nM. This molecule also displayed a koff in assay [1] of 0.0037 s⁻¹. In [1], this molecule had a kon of 81000 M⁻¹ s⁻¹. Moreover, in [1], the t½ is 3.2 min. The MFIr in assay [2] amounted to 0.8; in assay [3], 0.8; in assay [4], 1.2; in assay [5], 70.5; in [6] it was 113. In addition, the “% Binding” value was 158% in assay [7] and 60% in assay [8].

B10: A16 (hIgG4 isotype) (antibody, V domains shown)
VH: QVQLVQSGAEVKKPGSSVKVSCKASGYNFLNYDVNWVRQAPGQGLEWMGGIIPIFGTANYAQKFQGRVTITADESTSTAYMELSSLRSEDTAVYYCATGVGAGWFDPWGQGTLVTVSS
VL: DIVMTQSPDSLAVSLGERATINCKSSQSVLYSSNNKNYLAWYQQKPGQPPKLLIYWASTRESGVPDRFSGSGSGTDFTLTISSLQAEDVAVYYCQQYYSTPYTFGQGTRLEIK
For B10, the “hPILRA downregulation EC50” value in assay [9] was found to be 0.4 µg/mL.

B11: B1 (hIgG4 isotype) (antibody, V domains shown)
VH: DVKLVESGGGLVKLGGSLKLSCAASGFTFSSYYMSWVRQTPEKRLEWVAAINSNGDRSYYPDTVKGRFTISRDNAKNTLYLQMSSLKSEDTAFYYCASHGNYYGSPWFAYWGQGTLVTVSA
VL: ETTVTQSPASLSVATGEKVTIRCKTSTDIDDDMNWYQQKPGEPPKLLISEGNTLRPGVPSRFSSSGYGTDFVFTIENTLSEDVADYYCLQNDHMPLTFGGGTKLEIK
For the molecule B11, the “hPILRA downregulation EC50” value in assay [9] came out at 0.009 µg/mL.
